Data from the RNAGym collection of RNA variant scans (doi:10.1073/pnas.2313332121).

B1: TPR t1 (parent)
chain: GACCAAUCUGCCCUCAGAGCUCGAGAACAUCUUCGGAUGCAGAGGAGGCAGGCUUCGGUGGCGCGAUAGCGCCAACGUCCUCAACCUCCAAUGCAUCCCACCACAUGAUGAUGCCUGAAGAGCCUUGGUUUUUUG

Variants of: B1
Assay: polymerase ribozyme fitness, log enrichment relative to wild type (log ratio); higher = more active; in vitro selection for triplet polymerase activity
Outline: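 Mutant libraries of both subunits of a heterodimeric triplet polymerase ribozyme were PCR-built, transcribed, and selected once in triplicate, with frozen incubation at −7 °C and capture of gel-excised extended constructs on streptavidin beads before RT-PCR. Illumina sequencing of input and output libraries was filtered to genotypes with ≥10 input reads and ≥1 read per output. Fitness is the logarithm of genotype enrichment over wild-type enrichment, using inverse-variance-weighted replicate averages. The logarithm is base 2.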

Variant	polymerase ribozyme fitness (log ratio)
A100U U116C G128U U130A	-5.48
C11G A29G	-1.16
C8G U14A A29G C40G G44U G57C	-2.63
G128U	-1.57
U55G U87A C98G U109G A121C	-6.47
C49A G52A	-0.855
A5G G42U C56G A91C C115G	-3.59
A50U G135U	-2.36
C49A U96C	-0.589
C8G G36U C49G C62G U129C	-3.6
G58C U112C A121G	1.44
C3U G69C U87G C124A	0.486
C53U A74U U81C G120A	-1.15
A50C C94U C123U	1.49
C8G C94A C104U	0.226
U7G C40U A43G G44U C70U U112C	-0.649
C56G C97A G122A	-4.86
G48A C72U G77C C82G A91C G110C G127C	-6.25
C34G C53G C104A	-4.3
U9G C97G C104U	-2.99
C12G G45U C101U A118U	-0.398
A6U A111C	-0.0776
A41U C73G A103C	-6.66
C34U G45U C88A C124G	-4.4

Variant	polymerase ribozyme fitness (log ratio)
A41G G57C	-0.0815
G52A C102U G120A	-1.56
U9G G47A C76A C82G U116A	-2.05
C3U C40U U78C G113A G120A C123A	-2.82
U30C C64G C99G C123G	-7.65
U38G G69U C98A	-4.75
U96G A111G U125G	-1.74
G58C G61A U92C	-1.98
C56G U78A U116G	-3.2
A50C A74U	-1.45
G39U C73U C114U G120A G127C	-3.02
U92G G120C	-1.74
A83G U92C C94A	-4.59
C28U C53G G58C G60C	-3.2
C12U C53G C82U G128A	-1.97
C12U C15U G61C C104U	-1.43
C49A C73A C101G C115A G120A	-2.56
C53U G63A C102A A103U	-7.55
A83U U96A	-0.525
C11A C62U G117A G122A	-0.74
G47A G71A	-2.02
A50C C72G U87G G120C U131A	0.442
U14C G69U A83U C114G C123G	-1.4
C3G U7A C40A G44A A111U	-5.51

Variant	polymerase ribozyme fitness (log ratio)
C20A A90U	-3.71
A2U C70U G128C	-2.25
C20U C115U	-1.73
G19A U54C C73G C82G C114G G135A	-3.8
U109C A111C	-3.65
C8U A37U C49G U55A C104A	-1.74
A24U A37G A108G G110U A121C	-6.34
G44A C56G C76A C86A	-2.93
C4A C49G A83G C88A C102U G120C	-5.38
C12A C22U U96A	-4.9
C13A A103U U109A U125A U131G	-6.73
G10C A68G	-4.75
C3U G48A C72U U129G	-4.31
A5U C15G A43G U54G C114U G122U	-6.04
C12A A16C A29U G47A G61A	-3.43
G44A A75U	-1.11
A18U A83C C94G C115G C123G U134G	-1.77
A2U G44U C70U A90U	-5.08
A90G C94U C97A C124A	-0.528
C8U G23A U54C C73A	-6.59
G51U C72A	-2.55
C8G G93A A111C	0.513
A2C C64U	-1.07
C13U G120U	0.513

Variant	polymerase ribozyme fitness (log ratio)
A95U C102U C104A G110C G128U	-5.5
C8A C80A	-1.88
G52C C56U	-0.823
A2G G69A	-2.65
C22A C64U	-4.37
U32G G69U	-4.52
G48A U130A	-1.78
A6U C70U	-0.544
G93U U106A	-1.03
U7C U32C U106A G113U	-3.53
U7C C101G	-1.98
C62G C104U	-1.52
U7A G45A G58A U59C	-2.17
G57A A90C C104A G113C G117C	-6.59
C11A C56G	-1.77
C12A G120C	0.84
G42U G71U G127U	-2.72
U9G G71A	-0.592
A5C G63U	-1.6
G45A U55G G77A	-1.78
G45U U54C U132C	-1.01
G69C G110A	-2.04
G25A A41U	-5.8
G58U G63A C94U	-0.678

Variant	polymerase ribozyme fitness (log ratio)
C40A G60A U81A	-2.66
G47A G61U G120U G127A	-0.871
A6G C79G C104A	-4.14
A5C A29G C49G C70A U92C G117U	-7.38
C101A G135U	-2.11
C72G U78G C97U C124A	1.18
U14C G63C	-2.35
G45A U131G	-0.996
G57U A66C	-1.65
C99U C114A	-4.84
C53U C56G C76G U125A	-0.978
G17A G122A	-3.37
U33G C73G G93U A121G	-5.53
C72U U132G G135U	-0.759
A41U G69U G93C	-0.276
A41G C101A C115G	-2.97
A50C C72U	-0.602
C56A C70U C80U G120C C123G	-1.95
A95C G110U	-2.32
U21C A29U C62U A84C U112A A119G G120C	-1.53
U38G C56A G69U	-1.9
G61U A83C C104A C115U	-4.01
A5U C49G C70G	-4.62
C49A U54A G77U	-0.966

Variant	polymerase ribozyme fitness (log ratio)
C13U U78C U92G U106A	-2.62
C11U C28U	-1.61
A6U U33A	-4.02
C13G A18U A27G C53U C89A C104U	-5.29
U9G U59C C101U	-0.449
U9A C124U	1.21
A5U G42U A46G C72U U78G	-1.17
G44C U112G	-1.07
C12A A37C G71A A108G U112G	-7.07
G42A C89U G117A	-3.19
A16U U32A A46U A66C A103C A111G	-7.56
C20U C34G A43U C70U C82U C114A	-7.14
G48A G60U C115U	-0.887
C4U G48A G52A U92A	-5.54
A83C G110C G120C	-5.9
C70U G117U	-3.24
G17C C20G C73A C88U C99A A100C	-4.19
A27U G63U	-5.66
A41C C82U C94G C97U	-6.09
A2U C12U	-2.36
A6U C94G G120A	0.554
A83U C88U C101A	-1.52
C22U C82A C101A	-4.64
C3U A37G C49G G69A C73U	-3.7

Variant	polymerase ribozyme fitness (log ratio)
G44A C72A C98U G110A	-4.64
G65A C88G	-5.43
C8G C22G C76A G77A	-5.05
G44A A50U G60A U132C	-2.42
A41U A111G U112A A118U	-5.06
C12U A121U	2.4
G69C A119U	-1.32
C70G A121G	-0.69
G17U G51A A121U	-3.76
A18U G44A C94A C114A	-3.45
A6U C56U C97A	-6.51
C11U C13G U30G U55A C70U A108U	-3.69
G45A C85U U92C G128A	-5.92
A24G A50C G63U A118U G122A	-7.26
C28G G63U C70G C88A U106A U125G G128C	-4.76
G45A C49A G117A	-2.04
G60U G63U	-4.69
U9C U78G A103U	-5.95
A43C G61U C64G A121G	-6.23
A5G G45A C49A G69U G93A U130G U131A	-2.39
A27U C89U C124A	-1.39
C13U A37U A66G	-0.629
C3U G17U	-3.11
